In test [1] the target is taxol-stabilized microtubules (pelleting assays) (UniProt P02550). Kind of test: co-sedimentation; as a5 with increasing microtubules, in the presence of an added Ndc80 complex (1 µM Ndc80 Bonsai; Ndc80 Broccoli); apparent.
Test [2] shares this target. Kind of test: co-sedimentation; microtubule pelleting with increasing taxol-stabilized microtubules; ~5 nM Astrin-SKAP complex, BRB80 with 25 mM KCl, 0.5 mg/mL BSA, room temperature 10 min, glycerol cushion; α-SKAP Western blot; apparent. On the technique in general: In western blotting, separated proteins are transferred to a membrane and probed.

For the substance “Astrin 1–693 complex (Astrin 1–693, SKAP, LC8, MYCBP) (from UniProt Q96R06 1-693; P63167 1-89; Q99417 1-103)”, the apparent KD in the presence of 1 µM Ndc80 Bonsai complex in test [1] is 1.4 µM. In test [2], the Kd was determined as 3200 nM.

“Astrin 465–693 complex (Astrin 465–693, SKAP, LC8, MYCBP) (from UniProt Q96R06 465-693; P63167 1-89; Q99417 1-103)”: the apparent KD in the presence of 1 µM Ndc80 Bonsai complex in test [1] was found to be 1.7 µM. The Kd in test [2] is 2200 nM.

The values above are taken from paper PMC5602300.
